This note sets out measurements from patent publication US20030157644A1 (MOUNT SINAI SCHOOL OF MEDICINE OF THE CITY UNIVERSITY OF …, published 2003).

Experiment [1] deals with T1, phospholipase C-β2 (human, UniProt Q00722 1-1185, Cascade Blue acetyl azide label on amines, labelling ratio 1:1 (FRET experiment only)).
T1 construct: Recombinant; Cytosolic fraction of baculovirus-infected High 5 cells in the activity assays; purified from Sf9 cells and labelled with Cascade Blue for FRET; also called PLC-β2; CB-PLC-β2
T1 sequence (Q00722 other isoform, or with tags, fused parts or gaps limits assumed): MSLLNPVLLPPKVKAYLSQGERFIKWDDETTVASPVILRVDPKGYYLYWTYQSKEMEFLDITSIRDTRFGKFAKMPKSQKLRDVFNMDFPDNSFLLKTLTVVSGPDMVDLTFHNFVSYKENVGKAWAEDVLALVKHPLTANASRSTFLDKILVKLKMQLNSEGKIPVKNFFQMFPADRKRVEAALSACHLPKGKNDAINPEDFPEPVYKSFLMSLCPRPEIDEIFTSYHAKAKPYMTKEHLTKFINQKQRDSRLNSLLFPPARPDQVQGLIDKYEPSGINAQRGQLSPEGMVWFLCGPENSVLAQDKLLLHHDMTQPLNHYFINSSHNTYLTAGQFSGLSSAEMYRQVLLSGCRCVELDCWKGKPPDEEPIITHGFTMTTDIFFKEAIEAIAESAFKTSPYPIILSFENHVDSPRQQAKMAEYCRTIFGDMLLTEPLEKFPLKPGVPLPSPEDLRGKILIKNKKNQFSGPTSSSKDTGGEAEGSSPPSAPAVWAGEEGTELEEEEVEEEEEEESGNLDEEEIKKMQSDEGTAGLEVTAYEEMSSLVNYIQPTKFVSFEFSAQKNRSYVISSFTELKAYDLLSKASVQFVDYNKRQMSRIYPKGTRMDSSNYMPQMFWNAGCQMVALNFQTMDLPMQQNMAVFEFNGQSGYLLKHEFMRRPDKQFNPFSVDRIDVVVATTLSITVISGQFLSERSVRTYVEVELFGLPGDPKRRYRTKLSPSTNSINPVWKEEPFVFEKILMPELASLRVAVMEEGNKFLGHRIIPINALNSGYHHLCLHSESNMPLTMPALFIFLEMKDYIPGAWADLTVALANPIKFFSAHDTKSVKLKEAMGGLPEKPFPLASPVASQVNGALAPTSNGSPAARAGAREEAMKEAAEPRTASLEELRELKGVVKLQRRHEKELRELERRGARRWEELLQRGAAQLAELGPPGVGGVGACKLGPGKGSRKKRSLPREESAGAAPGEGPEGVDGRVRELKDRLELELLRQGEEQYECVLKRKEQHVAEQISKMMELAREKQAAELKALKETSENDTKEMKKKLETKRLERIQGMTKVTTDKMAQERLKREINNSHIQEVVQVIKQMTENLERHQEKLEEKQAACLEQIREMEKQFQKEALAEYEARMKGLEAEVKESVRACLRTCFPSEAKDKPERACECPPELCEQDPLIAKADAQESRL
Nature of the experiment: fluorescence resonance energy transfer, DABMI-peptide and Cascade Blue-PLC-β2, with and without phospholipids. On the procedure: The reaction was allowed to proceed for 30 minutes at room temperature before quenching with 5 mM DTT. The final labeling ratios, as determined by absorption, were 1:1 for CB-PLC-β2 and 0.8 for the two DABMI-peptides. Fluorescence spectra were taken on an ISS-PC7 (ISS Champaign, IL) photon counting spectrofluorometer using a 3×3 mm cuvette and exciting at 380 nm and scanning from 400-560 nm.
The stimulation by maximal concentration of peptide was non-additive with Gβγ stimulation (FIG. 5A, upper panel).

Experiment [2] concerns the target T1, phospholipase C-β2. Nature of the experiment: cell-based or functional assay.

Ends that are not written are not given here.

B1: Gβ 86-105 M101N substituted peptide (peptide)
peptide: TTNKVHAIPLRSSWVNTCAY
modifications: also: DABMI maleimide label in FRET experiment, residue not given here
notes: Synthetic peptide; also called m-TTN
For B1, in the experiment with phospholipase C-β2 [1], the binding result is recorded as “no binding”.

B2: Gβ 86-105 peptide with S98 substituted with alanine (peptide)
peptide: TTNKVHAIPLRSAWVMTCAY
modifications: not fully specified
On to B2, for which the “fold change in affinity of PLC-β2 stimulation against the Gβ 86-105 peptide” value in the experiment with phospholipase C-β2 [2] was about 2 fold.

B3: S97,98R Gβ 86-105 peptide (peptide)
peptide: TTNKVHAIPLRRRWVMTCAY
Consider B3, for which the “fold change in affinity of PLC-β2 stimulation against the Gβ 86-105 peptide” value with phospholipase C-β2 [2] was 5 fold.
